# How the values were obtained:
# [1] = Solubility study of propofol: minimum conjugate concentration required to solubilize propofol; format: physicochemical; conditions: 1% (w/v) propofol in saline based solution
# Source text: Table 15 listed the minimum concentration of the conjugates required to solubilize propofol as a solubility test reference.
# [2] = Solubility study of voriconazole: minimum polymer to drug ratio required to solubilize voriconazole; conditions: 1% (w/v) voriconazole in saline based solution
# Method: 1% (w/v) of voricazole was prepared in a saline based solution with different PEG-carbohydrate conjugates.
Substance,Concentration (minimum concentration of the conjugate required to solubilize propofol) [1],further results
Cholesterytriethylenetetraminelactobionate-di-mPEG11,1.6 % w/v,
Cholesterypropanediamineisomaltotriose-mPEG11,2.0 % w/v,
Cholecalciferol-diethylene-triamineisomal-totriose-mPEG11,2.2 % w/v,
Retinoylpropanediaminelactobionate-mPEG11,2.9 % w/v,
Cholesterypropanediaminegluconate-mPEG11,5.3 % w/v,"Conjugate concentration needed to solubilize propofol, comparison in words [1]: much high conjugate concentration was required"
Cholesterypropanediamineascorbate-mPEG11,4.6 % w/v,
"N,N,N-oleoyl-lactobionoyl-mPEG(12)propanediamine",,"Polymer concentration needed to solubilize voriconazole, comparison in words [2]: much high concentration; Solubilizing Voriconazole (min. polymer to drug ratio) [2]: 20"
Tocopherylpropanediaminelactobionate-mPEG11,3.3 % w/v,"Conjugate concentration needed to solubilize propofol, comparison in words [1]: the lowest molar concentration"
Cholesterypropanediaminelactobionate-mPEG11,3.2 % w/v,

# From patent publication US10835608B2, “Polymer-carbohydrate conjugates for drug delivery technology” (priority 2013, dated 2020)
